Holding throughout (experiment): cell-based or functional assay
One test deals with human NPFF2R (human, UniProt Q9Y5X5 1-522).
Test [1] has as its target T1, GPR10 (UniProt P49683 1-370, limits assumed).
T1 sequence (looked up): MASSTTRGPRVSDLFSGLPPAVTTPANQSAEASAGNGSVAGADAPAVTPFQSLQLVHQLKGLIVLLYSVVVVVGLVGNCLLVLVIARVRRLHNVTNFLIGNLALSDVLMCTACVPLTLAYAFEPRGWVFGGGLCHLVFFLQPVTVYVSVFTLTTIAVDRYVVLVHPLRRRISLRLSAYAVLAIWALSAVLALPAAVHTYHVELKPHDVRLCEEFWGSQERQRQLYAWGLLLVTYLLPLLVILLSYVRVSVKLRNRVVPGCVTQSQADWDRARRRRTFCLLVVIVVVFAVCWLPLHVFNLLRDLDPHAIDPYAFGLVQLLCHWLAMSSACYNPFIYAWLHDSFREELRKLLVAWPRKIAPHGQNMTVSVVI

Test [2] concerns the target T1, GPR10. This is another data set of the same source.
In test [3] the target is T2, human GIPR (human, UniProt P48546 22-466).
T2 sequence (looked up): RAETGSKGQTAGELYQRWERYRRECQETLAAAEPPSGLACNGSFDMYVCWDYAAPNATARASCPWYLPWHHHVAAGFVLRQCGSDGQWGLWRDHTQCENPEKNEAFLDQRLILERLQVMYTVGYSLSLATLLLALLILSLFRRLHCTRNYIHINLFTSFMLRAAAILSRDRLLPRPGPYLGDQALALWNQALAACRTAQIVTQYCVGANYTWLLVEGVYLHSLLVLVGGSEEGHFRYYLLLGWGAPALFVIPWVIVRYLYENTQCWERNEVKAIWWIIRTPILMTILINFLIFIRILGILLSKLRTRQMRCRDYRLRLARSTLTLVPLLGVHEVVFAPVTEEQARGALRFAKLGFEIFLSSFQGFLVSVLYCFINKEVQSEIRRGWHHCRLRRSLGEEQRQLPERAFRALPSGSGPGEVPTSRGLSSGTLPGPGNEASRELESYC

In test [4] the target is T3, human GLP-1R (human, UniProt P43220 24-463).
Test [5] addresses T2, human GIPR. The source holds these as a separate data set.
Test [6] has as its target T3, human GLP-1R. This is another data set of the same source.
Another test has as its target human GCGR (human, UniProt P47871 26-477).
Test [7] has as its target T3, human GLP-1R. The source holds these as a separate data set.

Where two headings read alike, the source gives them in different places. Bridges are numbered along the chain shown (N, C = ends). Where no end group is shown, it is not given here. [ ]: non-standard residue; d: D form. hArg = N=C(N)NCCCC[C@H](N)C(=O)O; staple K20 = not defined here; staple K4 = not defined here; staple K5 = not defined here; staple K6 = not defined here; staple K8 = not defined here; staple K9 = not defined here; Nle = CCCC[C@H](N)C(=O)O; L12 = not defined here; L4A = not defined here; L5A = not defined here; K0 = not defined here; K4 = not defined here; K5 = not defined here; L1 = not defined here; L3 = not defined here; L4 = not defined here; L5 = not defined here; L6 = not defined here; L7 = not defined here; L8 = not defined here; L9 = not defined here; Aib = CC(C)(N)C(=O)O A value given as a limit tells only on which side of the number the result lay.

Sequence of human GCGR (P47871 26-477): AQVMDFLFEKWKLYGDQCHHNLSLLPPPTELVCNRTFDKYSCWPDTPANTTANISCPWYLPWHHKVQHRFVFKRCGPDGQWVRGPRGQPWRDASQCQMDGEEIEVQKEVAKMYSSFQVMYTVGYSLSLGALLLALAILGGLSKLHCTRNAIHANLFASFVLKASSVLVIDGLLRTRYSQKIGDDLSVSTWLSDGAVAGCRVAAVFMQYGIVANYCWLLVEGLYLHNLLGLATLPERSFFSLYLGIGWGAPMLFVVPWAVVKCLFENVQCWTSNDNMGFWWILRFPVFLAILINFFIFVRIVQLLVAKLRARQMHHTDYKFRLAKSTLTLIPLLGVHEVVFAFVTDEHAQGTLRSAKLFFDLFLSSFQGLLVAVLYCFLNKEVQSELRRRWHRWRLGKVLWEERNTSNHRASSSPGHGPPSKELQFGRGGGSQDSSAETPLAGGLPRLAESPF
Sequence of human NPFF2R (Q9Y5X5 whole entry): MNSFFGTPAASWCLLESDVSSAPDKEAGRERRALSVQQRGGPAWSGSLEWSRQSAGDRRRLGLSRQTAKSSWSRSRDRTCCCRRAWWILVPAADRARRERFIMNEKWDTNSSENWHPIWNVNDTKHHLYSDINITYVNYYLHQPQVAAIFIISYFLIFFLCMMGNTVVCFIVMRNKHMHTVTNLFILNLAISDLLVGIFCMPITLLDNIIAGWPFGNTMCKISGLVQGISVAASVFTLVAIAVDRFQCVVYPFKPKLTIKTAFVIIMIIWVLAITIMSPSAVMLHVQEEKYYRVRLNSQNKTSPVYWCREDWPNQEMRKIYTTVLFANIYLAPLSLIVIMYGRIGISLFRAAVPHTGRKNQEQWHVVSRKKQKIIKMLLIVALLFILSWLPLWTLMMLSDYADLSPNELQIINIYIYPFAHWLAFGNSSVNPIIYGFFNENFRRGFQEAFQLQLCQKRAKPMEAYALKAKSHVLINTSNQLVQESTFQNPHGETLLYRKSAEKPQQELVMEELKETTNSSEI

B1: Conjugate 255 (peptide)
peptide: SRAHQCS[Nle]ETRTCDINPAWYTG[hArg]GIRPVGRF-NH2
modifications: linker 6-13 via L3; reading uncertain
On to B1, for which, in the test with human NPFF2R, the “NPFF2R EC50 0% FBS” value came out at 150 nM and the “NPFF2R EC50 10% FBS” value came to 220 nM. For the same molecule, in the test with GPR10 [1], the “GPR10 EC50 0% FBS” value amounted to 8 nM and the “GPR10 EC50 10% FBS” value came out at 9.1 nM. In addition, the “GPR10 EC50” value with GPR10 [2] was found to be 9.1 nM.

B2: Conjugate 165 (peptide)
peptide: Y[Aib]EGTFHSDYDIYKDKQAA[Aib]KFVQWLLAGGPSSGAPPPS
modifications: linker 14-21 via staple K4; reading uncertain
On to B2, for which the “EC50 Creluc” value in the test with human GIPR [3] came out at 5.31 nM; with human GLP-1R [4], 13.8 nM.

B3: Conjugate 263 (peptide)
peptide: SRAHQCS[Nle]ETRTCDINPAWYTG[hArg]GIRPVGRF-NH2
modifications: linker 6-13 via L5; reading uncertain
Turning to B3, in the test with human NPFF2R, the “NPFF2R EC50 0% FBS” value was 520 nM and the “NPFF2R EC50 10% FBS” value was greater than 10000 nM. In the test with GPR10 [1], the “GPR10 EC50 0% FBS” value is 7.8 nM and the “GPR10 EC50 10% FBS” value was 80 nM. For the same molecule, in the test with GPR10 [2], the “GPR10 EC50” value was 80 nM.

B4: Conjugate 160 (peptide)
peptide: Y[Aib]EGTFTSDYSIYLDKKAQ[Aib]AFVKWLIAQGPSSGAPPPS
modifications: linker 17-24 via staple K6; reading uncertain
As to B4, the “EC50 cAMP 0% FBS” value with human GIPR [5] was 7.3 nM; in the test with human GLP-1R [6] it was 0.03 nM.

B5: Conjugate 121 (peptide)
peptide: H[dS]QGTFTSDYSKYLDEKAAKEFIKWLLNGGPSSGAPPPS
modifications: linker 17-24 via K5; ends not checked
As to B5, the “EC50 cAMP 0% FBS” value is 2.54 nM with human GCGR and 1.36 nM with human GLP-1R [7].

B6: Conjugate 163 (peptide)
peptide: Y[Aib]EGTFTSDYSIYLDKKAQ[Aib]AFVKWLIAQGPSSGAPPPS
modifications: linker 17-24 via staple K5; reading uncertain
Regarding B6, the entries for the “EC50 cAMP 0% FBS” value with human GIPR [5] and in the test with human GLP-1R [6] were 0.05 nM and 0.24 nM, respectively.

B7: Conjugate 125 (peptide)
peptide: HXQGTFTSDYSKYLDEKAAKEFIKWLLNGRNRNNIA
modifications: staple K4 on Lys 17, 24; Aib 2
Turning to B7, the “EC50 cAMP 0% FBS” value was 0.626 nM in the test with human GCGR and 0.21 nM with human GLP-1R [7].

B8: Conjugate 136 (peptide)
peptide: H[dS]QGTFTSDYSKYLDECAAKEFICWLLRA
modifications: linker 17-24 via L4A; reading uncertain
Take B8: the figures for the “EC50 cAMP 0% FBS” value with human GCGR and with human GLP-1R [7] were 0.559 nM and 2.87 nM, respectively.

B9: Conjugate 123 (peptide)
peptide: H[dS]QGTFTSDYSKYLDEKAAKEFIKWLLRA
modifications: linker 17-24 via K4; reading uncertain
Consider B9, for which the “EC50 cAMP 0% FBS” value with human GCGR was determined as 0.451 nM; with human GLP-1R [7], 2.37 nM.

B10: Conjugate 164 (peptide)
peptide: Y[Aib]EGTFTSDYSIYLDKKAQ[Aib]AFVKWLIAQGPSSGAPPPS
modifications: linker 17-24 via staple K9; reading uncertain
Consider B10, for which the “EC50 cAMP 0% FBS” value is 68.3 nM with human GIPR [5] and 0.14 nM in the test with human GLP-1R [6].

B11: Conjugate 268 (peptide)
peptide: SRAHQCS[Nle]ETRTCDINPAWYTG[hArg]GIRPVGRF-NH2
modifications: linker 6-13 via L9; reading uncertain
For the molecule B11, in the test with human NPFF2R, the “NPFF2R EC50 0% FBS” value is 9000 nM and the “NPFF2R EC50 10% FBS” value was greater than 10000 nM. Further, in the test with GPR10 [1], the “GPR10 EC50 0% FBS” value was 8.2 nM and the “GPR10 EC50 10% FBS” value was determined as 120 nM.

B12: Conjugate 251 (peptide)
peptide: SRAHQCS[Nle]ETRTCDINPAWYTG[hArg]GIRPVGRF-NH2
modifications: linker 6-13 via L1; reading uncertain
For B12, in the test with human NPFF2R, the “NPFF2R EC50 0% FBS” value was found to be 920 nM and the “NPFF2R EC50 10% FBS” value was determined as 1200 nM. Besides, in the test with GPR10 [1], the “GPR10 EC50 0% FBS” value was found to be 5.9 nM and the “GPR10 EC50 10% FBS” value was found to be 10 nM. For the same molecule, the “GPR10 EC50” value with GPR10 [2] is 10 nM.

B13: Conjugate 126 (peptide)
peptide: HXQGTFTSDYSKYLDSKKAKEFVKWLLNXGPSSGAPPPS
modifications: not fully specified; staple K4 on Lys 17, 24; Aib 2, 29
Turning to B13, the “EC50 cAMP 0% FBS” value in the test with human GCGR was 0.092 nM.

B14: Conjugate 137 (peptide)
peptide: H[dS]QGTFTSDYSKYLDECAAKEFICWLLRA
modifications: linker 17-24 via L5A; reading uncertain
For B14, the “EC50 cAMP 0% FBS” value with human GCGR is 0.444 nM; in the test with human GLP-1R [7], 2.02 nM.

B15: Conjugate 259 (peptide)
peptide: SRAHQCS[Nle]ETRTCDINPAWYTG[hArg]GIRPVGRF-NH2
modifications: linker 6-13 via L4; reading uncertain
Take B15: in the test with human NPFF2R, the “NPFF2R EC50 0% FBS” value turned out to be 470 nM and the “NPFF2R EC50 10% FBS” value is greater than 10000 nM. Further, in the test with GPR10 [1], the “GPR10 EC50 0% FBS” value was 12 nM and the “GPR10 EC50 10% FBS” value worked out at 26 nM. Also, the “GPR10 EC50” value in the test with GPR10 [2] was 26 nM.

B16: Conjugate 122 (peptide)
peptide: H[dS]QGTFTSDYSKYLDEKAAKEFIKWLLNGGPSSGAPPPS
modifications: linker 17-24 via K4; ends not checked
Take B16: the “EC50 cAMP 0% FBS” value came to 0.07 nM with human GCGR and 0.0037 nM in the test with human GLP-1R [7].

B17: Conjugate 161 (peptide)
peptide: Y[Aib]EGTFTSDYSIYLDKKAQ[Aib]AFVKWLIAQGPSSGAPPPS
modifications: linker 17-24 via staple K8; reading uncertain
As to B17, the “EC50 cAMP 0% FBS” value in the test with human GIPR [5] was 0.01 nM; in the test with human GLP-1R [6], 0.4 nM.

B18: Conjugate 129 (peptide)
peptide: HXQGTFTSDYSKYLDKKKAKEFKQWLLNXGRNRNNIA
modifications: staple K4 on Lys 16, 23; Aib 2, 29
For the molecule B18, the “EC50 cAMP 0% FBS” value with human GCGR was 56 nM; in the test with human GLP-1R [7], 31.1 nM.

B19: Conjugate 270 (peptide)
peptide: SRAHQCS[Nle]ETRTCDINPAWYTG[hArg]GIRPVGRF-NH2
modifications: linker 6-13 via L6; reading uncertain
With B19, in the test with human NPFF2R, the “NPFF2R EC50 0% FBS” value amounted to 270 nM and the “NPFF2R EC50 10% FBS” value was 310 nM. In the test with GPR10 [1], the “GPR10 EC50 0% FBS” value turned out to be 12 nM and the “GPR10 EC50 10% FBS” value amounted to 42 nM.

B20: Conjugate 271 (peptide)
peptide: SRAHQCS[Nle]ETRTCDINPAWYTG[hArg]GIRPVGRF-NH2
modifications: linker 6-13 via L7; reading uncertain
For B20, in the test with human NPFF2R, the “NPFF2R EC50 0% FBS” value came out at 130 nM and the “NPFF2R EC50 10% FBS” value was determined as 140 nM. Also, in the test with GPR10 [1], the “GPR10 EC50 0% FBS” value came out at 9 nM and the “GPR10 EC50 10% FBS” value is 39 nM.

B21: Conjugate 128 (peptide)
peptide: HXQGTFTSDYSKYLDKKAAKEFKQWLLNGPSSGAPPPS
modifications: staple K4 on Lys 16, 23; Aib 2
As to B21, the “EC50 cAMP 0% FBS” value with human GCGR was 16.2 nM; with human GLP-1R [7], 6.64 nM.

B22: Conjugate 267 (peptide)
peptide: SRAHQCS[Nle]ETRTCDINPAWYTG[hArg]GIRPVGRF-NH2
modifications: linker 6-13 via L8; reading uncertain
As to B22, in the test with human NPFF2R, the “NPFF2R EC50 0% FBS” value worked out at 560 nM and the “NPFF2R EC50 10% FBS” value is roughly 10000 nM. Further, in the test with GPR10 [1], the “GPR10 EC50 0% FBS” value stood at 24 nM and the “GPR10 EC50 10% FBS” value was found to be 830 nM.

B23: Conjugate 269 (peptide)
peptide: SRAHQCS[Nle]ETRTCDINPAWYTG[hArg]GIRPVGRF-NH2
modifications: linker 6-13 via L12; reading uncertain
For the molecule B23, in the test with human NPFF2R, the “NPFF2R EC50 0% FBS” value amounted to 1600 nM and the “NPFF2R EC50 10% FBS” value was roughly 8000 nM. In addition, in the test with GPR10 [1], the “GPR10 EC50 0% FBS” value worked out at 10 nM and the “GPR10 EC50 10% FBS” value worked out at 120 nM.

B24: Conjugate 124 (peptide)
peptide: H[dS]QGTFTSDYSKYLDEKAAKEFIKWLLNGGPSSGAPPPS
modifications: linker 17-24 via K0; ends not checked
For B24, the figures for the “EC50 cAMP 0% FBS” value in the test with human GCGR and in the test with human GLP-1R [7] were 0.319 nM and 0.049 nM, respectively.

B25: Conjugate 162 (peptide)
peptide: Y[Aib]EGTFTSDYSIYLDKKAQ[Aib]AFVKWLIAQGPSSGAPPPS
modifications: linker 17-24 via staple K20; reading uncertain
As for B25, the entries for the “EC50 cAMP 0% FBS” value with human GIPR [5] and with human GLP-1R [6] were 0.02 nM and 0.05 nM, respectively.

B26: Conjugate 127 (peptide)
peptide: HXQGTFTSDYSKYLDSKKAQEFVKWLLNGPSSGAPPPS
modifications: staple K4 on Lys 17, 24; Aib 2
With B26, the “EC50 cAMP 0% FBS” value in the test with human GCGR stood at 0.009 nM; with human GLP-1R [7], 0.148 nM.

Values taken from patent US20230071371A1 (Scripps Research, published 2023).
